One test deals with SENP1 (415–644) (human) (UniProt Q9P0U3).
Test [1] deals with SENP1 C603A (415–644) (human) (UniProt Q9P0U3). The test can be described thus: ITC. For orientation: Isothermal titration calorimetry measures the heat released or taken up as one component is titrated into another.
SENP1 C603A (415–644) (human), sequence (Q9P0U3 415-644 C603A): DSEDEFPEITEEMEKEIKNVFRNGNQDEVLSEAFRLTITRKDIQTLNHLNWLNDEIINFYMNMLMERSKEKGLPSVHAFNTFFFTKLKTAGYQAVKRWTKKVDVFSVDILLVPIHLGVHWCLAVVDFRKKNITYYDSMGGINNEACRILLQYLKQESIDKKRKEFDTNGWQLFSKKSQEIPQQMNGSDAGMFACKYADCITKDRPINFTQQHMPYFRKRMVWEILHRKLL

SENP1 (415–644) (human), sequence (Q9P0U3 415-644): as the sequence (Q9P0U3 415-644 C603A) above, with A189C counted along it

Take “YFP–RanGAP1–SUMO-2–ECFP (from UniProt P46060 418-587; P55854 1-93) (complex)”: the apparent Km, Km(app), of cleavage by SENP1 (FRET-based protease assay) with SENP1 (415–644) (human) amounted to 0.242 µM.

In the case of “mature SUMO-2 (SUMO-2-GG) (from UniProt P55854 1-93) (natural protein)”, in the test with SENP1 (415–644) (human), the IC50 of product inhibition of SENP1 cleavage of YFP–RanGAP1–SUMO-2–ECFP (500 nM) was 1600 nM and the IC50 of product inhibition of SENP1 cleavage of YFP–SUMO-2-FL–ECFP (500 nM) was determined as 2230 nM. In addition, in test [1], the Kd (in general, the concentration at which binding is half-saturated) was determined as 8.56 nM and the dH is -14.5 kcal/mol.
